Experimental data taken from IntAct's records for PubMed 24366543.

B1: Nuclear factor erythroid 2-related factor 2 (Mus musculus), Q60795 (parent)
chain: MMDLELPPPGLQSQQDMDLIDILWRQDIDLGVSREVFDFSQRQKDYELEKQKKLEKERQEQLQKEQEKAFFAQFQLDEETGEFLPIQPAQHIQTDTSGSASYSQVAHIPKQDALYFEDCMQLLAETFPFVDDHESLALDIPSHAESSVFTAPHQAQSLNSSLEAAMTDLSSIEQDMEQVWQELFSIPELQCLNTENKQLADTTAVPSPEATLTEMDSNYHFYSSISSLEKEVGNCGPHFLHGFEDSFSSILSTDDASQLTSLDSNPTLNTDFGDEFYSAFIAEPSDGGSMPSSAAISQSLSELLDGTIEGCDLSLCKAFNPKHAEGTMEFNDSDSGISLNTSPSRASPEHSVESSIYGDPPPGFSDSEMEELDSAPGSVKQNGPKAQPAHSPGDTVQPLSPAQGHSAPMRESQCENTTKKEVPVSPGHQKAPFTKDKHSSRLEAHLTRDELRAKALHIPFPVEKIINLPVDDFNEMMSKEQFNEAQLALIRDIRRRGKNKVAAQNCRKRKLENIVELEQDLGHLKDEREKLLREKGENDRNLHLLKRRLSTLYLEVFSMLRDEDGKPYSPSEYSLQQTRDGNVFLVPKSKKPDTKKN

Variants of: B1
Details: with keap1_mouse Keap1, Q9Z2X8
Chain of keap1_mouse Keap1, Q9Z2X8 (Q9Z2X8 whole entry): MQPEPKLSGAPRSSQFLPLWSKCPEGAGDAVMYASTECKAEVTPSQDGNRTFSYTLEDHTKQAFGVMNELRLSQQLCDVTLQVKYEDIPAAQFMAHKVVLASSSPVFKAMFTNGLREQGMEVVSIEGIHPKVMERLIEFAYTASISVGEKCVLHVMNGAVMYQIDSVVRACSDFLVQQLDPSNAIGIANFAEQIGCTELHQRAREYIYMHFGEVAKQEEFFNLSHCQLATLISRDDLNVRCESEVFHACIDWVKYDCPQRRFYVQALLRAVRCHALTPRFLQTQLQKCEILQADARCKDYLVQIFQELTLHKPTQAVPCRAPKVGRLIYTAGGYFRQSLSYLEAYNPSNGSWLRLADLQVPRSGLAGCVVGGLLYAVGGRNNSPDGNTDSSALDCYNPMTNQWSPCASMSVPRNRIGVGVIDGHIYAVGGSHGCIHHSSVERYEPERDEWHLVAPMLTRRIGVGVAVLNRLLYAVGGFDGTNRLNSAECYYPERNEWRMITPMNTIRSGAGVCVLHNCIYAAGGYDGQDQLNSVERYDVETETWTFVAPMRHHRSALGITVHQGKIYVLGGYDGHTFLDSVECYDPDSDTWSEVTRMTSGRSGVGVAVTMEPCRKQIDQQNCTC

Row | Variant | effect of a mutation on the interaction
1 | R34Q | disrupting interaction

Variants of: B1
Details: with keap1_mouse Keap1, Q9Z2X8
Remark: another data set of the same source

Row | Variant | effect of a mutation on the interaction
2 | L23R | disrupting interaction

Variants of: B1
Details: with keap1_mouse Keap1, Q9Z2X8
Remark: another data set of the same source

Row | Variant | effect of a mutation on the interaction
3 | S33R | increasing interaction

Variants of: B1
Details: with keap1_mouse Keap1, Q9Z2X8
Remark: another data set of the same source

Row | Variant | effect of a mutation on the interaction
4 | Q43R | increasing interaction
